From the DeepSol protein solubility set

Assay: soluble on expression in E. coli; label from the status in PepcDB or PDB records

Sequence	soluble on expression in E. coli
MAHHHHHHMKLLSSVGRLSVVAGGLSLIPYTFIYDVDGGERCVMFNRFGGVSENTYGEGSHFYIPWFQTPYIYDIKMKPKVINTTTGTRDLQIVTLSLRLLFRPHTKQLPYLHSTLGPDYDERVLPSIGNEVLKAVVAKYNAESLLTQRDKISKEIRESITARAKHFNILLDDVAITHLSYGKEFAKAIEDKQVAQQESERVKFIVAKTEQEKIAAVIKAQGEAEAAKLISSAVKEYGNSLLEIRKLEAAKEIAENLSKSKNVTYFPASFNILLNPKNL	not soluble
MAHHHHHHMLEFLVTTQPSRRIVCRNEATYIYFWPYLFSREVPGALQLCRWAARRGAAVHGAVRLQPSETPNAAHRCYLTVTRPVAAGRTLISLPAALSLSVSSPESRKGTFIGRYSALESFAQLLARELHNPRSPHRAYLEFLHDLHNSGTDEVSDALLAGLRYERAAVLVDQLDAMYAGNSLQARGAANAPFLDKEQLTSASQRVEWVRLHQLQRRLEQGVPHFAAKSTAWALSMALSRAMEDDAEGLSLYPLIDFCAHSFEPNAYICVGEDERIAATRPVRWADSSGEPLLHVVTRRLLHAGEKVTLRWHWRPVKTTEDAEFWQMRFGYVPQSE	not soluble
MAHHHHHHMLHPSNALLTALLFVTTRMTNVESVKKKPLPYVKNYNLCDRSVRGIPSRHTKGTIRASTNPITTAPNEDKSDVYTPPISSGN	soluble
MAHHHHHHMLKECDFFSDSYGCIITKSIGYQAPFPLVRLSNGRSTKIPDGACVQGACFVSFGADHTGSRGRLLTMDVSARASSVSFLQLLSSSCPPVTLEPEVEYVSKIETTETASAVVTRGGGNRWSTSVYVQGEDVPDTAYSRRVHFHRASVASLFGFSLWLMEVAKDDYGAQAVHRYSLSTALTGGVSESTLVSANLGRPLDIIALSEDTALVLGTNGVAMADRRQRASDILFFSNLLNGGATGDRQLLTFGEDYTLRAYDLRDVSAPLFQATSATYLRIKSEIDTRASLLVTSDITGVFDVLHVTTVASLQHSGDTVLDAAVLPSRHNGVRVCTSTGSGMIYDWTVT	not soluble
MAHHHHHHMLKFFTEKANHQALKAVLCAVFVQKPLEVTLGSTYSTPYLQLPKSRALLYSCNEAARLIWSTHAAPLPADNSLEGEAEWLEWESTVLTPALTPLYTHRRITGEAEAALKKLDSTIEEHQGTVAVKGAPSSTSFLVDSVLFASLLPALCEGGLLPAAQAARVPHLVKWFQAFQAEHAELIASAFDVLSVQECGDFLRVP	soluble
MAHHHHHHMLRGTRGFLAVSPGVGIAPETTPVKYTPMMLNIQNMMWWNGKRNLYRATYREKTWYEISRTGAFTKGRRPVMRQKYSREALQAALAMVPPGFEVADVPRPPQRILAQSEGIVGRWYSNYWTLHSMRYQCLLAGVEWPLGERQRPRTNYDEPFFFADFEESKAIQDYRSRWINVNRSLVGMTKRMKEAEEEARYMQFRKLQDTFWSNRKVLVNRVKSMYNQGARTSAKDMPIKTINIKAFLSE	not soluble
MAHHHHHHMLSKGNVKNLATDEINEMIDNSLKSGDTDEAPYFLQQNNIYWETGHRTYIPFFHFMIHKYTTKIIDDQIRKFTESVKSVHHTPYVFHKDGYFRSYYGDPDINMVFNLKKNTNFIFNSTGTHNSYSLLCNNNTYDKSTHIFDQVLMSAFKLDLKSVLENNV	not soluble
MAHHHHHHMLSSISPKRYSFDKQGNIKEIDFLSCKSVILPEQHLNAKDNFICTTSILPNFYETPPDKASKLKMTQENNIDKANMGTNVYVQRTSSLSNMNVLQYADEVHNNLQDSNVHEINEPLIFADVNQYCGDANTQGIDPGVVAVSNALFAYNSAFQSIPIKSSPNVFKRRSKGEANSEWSNAFVTRVDPYECTDPEEEFKPYEVTKYYDEGKVKTVFNFDQENYNQDM	soluble
MAHHHHHHMMRIKQKAFVGKKICIAWEVLHDGKGWKAQGKALQILRFYAFSSEVYLMCRIRDADDKKQICNLVKAVDGIERHRVLFCTTEKGYEAFTRQIDPSLLITNNAAQVAFLKRVIQTLVLVGGDGVVASNVACVPSVEAIAVDLE	not soluble
MAHHHHHHMMSVANAAYLPLIGSCLTAGEQTALQCSLPLLSQRYRGTPMQLWGKVTGIKANYWVAQAFPNGEFAPAVSFYSIDGGSTWTMLSELTEEQAALCEALRGPYQGVPSYEYMMRQDLPAETDEAAVTMPTPDDILKKAEDDIAAARAASDANSDADESEGDDEEQDDEEEEDEEDAGAVLAPRKRMAKFRILSVTEAMRLAHFVQLHDADCRLTVRGMYVLQDGAAVGARNSTFGGQPLHNAKKPSCYVKMARAGTEERNRILYGLTYNPHTDYLMPITDDAPAGVWSVKYNATANVVSVRNLFYEGSLFWYRPGTLECGQVYCGPGERNFDLCFML	soluble
MAHHHHHHMNEVVPHVAELMTDQYANFLIQKLFDMMPQDVRYKVARVAAPKIISIALTPHGTFSVQKMVETIASREEMDILREALSKDVVRLVKDAHGNHVIQKVLQRFSHADKEFIYAAVGSDCISIAKNKQGCCVLQRCLEYASCSQRATLVNQILRCCLQIAEDPFGNYVLQYVLESNDSKTTDTIAIAFLPHLVQLCMNKFSSNVIEKVLRGASQPVQEMYVETMCSPDVVSRLIQDDFGNYVLQTALTICSSAQAESLVSAVRPLMPIIRNAPYAKKLEGKIDGIVHKTAGNDRNSFAEYEKSRQGEMNEQNCDILLPHHARESSVAPHQQLSS	not soluble
MAHHHHHHMNIFDHQIKNVDKGNVVAILGAQWGDEGKGKIIDMLSEYSDITCRFNGGANAGHTISVNDKKYALHLLPCGVLYDNNISVLGNGMVIHVKSLMEEIESVGGKLLDRLYLSNKAHILFDIHQIIDSIQETKKLKEGKQIGTTKRGIGPCYSTKASRIGIRLGTLKNFENFKNMYSKLIDHLMDLYNITEYDKEKELNLFYNYHLKLRDRIVDVISFMNTNLENNKKVLIEGANAAMLDIDFGTYPYVTSSCTTVGGVFSGLGIHHKKLNLVVGVVKSYLTRVGCGPFLTELNNDVGQYLREKGHEYGTTTKRPRRCGWLDIPMLLYVKCINSIDMINLTKLDVLSGLEEILLCVNFKNKKTGELLEKGCYPVEEEISEEYEPVYEKFSGWKEDISTCNEFDELPENAKKYILAIEKYLKTPIVWIGVGPNRKNMIVKKNFNLN	soluble
MAHHHHHHMNINKILFSKVGEVVKNGNGGMNMQQGASQLLSGKKLIYISKPTHGGFIYWKCRELIHTIKKKTKRCARYLDINHDFSRAALVGVPKTSYDPKNNIFYIQMDNEEWAGNFYKNGPSGVLMWGVMFFAKVCKMGKNALHTIRAAPFGRFAE	not soluble
MAHHHHHHMNNSLLGSLFAKRTKEPRDLDAAEMPQLRTGRSRASSESSTTSARSQRDGKKKKQQRRHPGKRRDAQDSDSGDEGVRQHSTPLTSPAPHPRASSVGSEFSDIEENPRPRNQRRSSGKVLRSSGTVAGAEKAKADERPPMAHSTPEVLPGADNLATNPLGEAGAGGEGAAGGQRHLPPMSQSAPMTSGRGSAAETVAVLRKEGSIEASQQQASTLTAGQLCGVAANSTVSFSGDDAAVLGASLNNTCSAATTISHHPTQPLAPAPGSSSGSPEDHKGSPPRACSSAEEGKKCDNRDSNTRRAVSGKDGEEMTHVDTEKQQPHDRSGDTPDRDVGASGKAWEGQRDATSAVEKDTHPLLDTASLRHTLDSFGSRPSSKLRRRSLGIGGSSKCVPAMLDRSRDGDGTSMTPSDGDEILKGLSFFNAASGEFVLTNHDIHSLEAFLFGTRALVVHINDLQKALLEMQHATDLARLL	not soluble
MAHHHHHHMNSKASPAALPMRQGRGFQVIVHGVLEGAECVEVGSVFARTQLFFGPDWAFLESNSGYGEDAAADDDDLVEPTYSNNAEVVTQLCDCAKGPVPYFSFTAPFEFALTSTNPFGWPQLVITLHTVEGAGGSSGKGADGNDTQLLGSGESIIGYGRCFIPMKSGYHTKKVPMMQLESTTSKQQLISFLTREKPVLRDLSFLCTGDDQVMLHARPLDGYVKLNFSVMINGMESSGFEV	soluble
MAHHHHHHMPARGCAPVDEQIAGTDTEGRRYRSVEEMWGRELQGNLYDAKTGWYGKSLQYWGSVPATVSGVLGGMDHVHDIDIRDSRAFICCLPERGTTRALDCGAGIGRITKSLLCHLYDVTDLLEPVASMLEKAKEELEGFPVGDFFQSSMETAKLQPKTYDLIVIQWAAIYLTDEDFVAFLVRCKEALTPKGYIFFKENCASDDEFIVDKEDSSLTRSDKHYKRIFAAAGIEVVKEAMQGDWPDDLLKVKMYALR	soluble
MAHHHHHHMPFNREILAAISFESGPLSSAEIAARRTPTEEPPKNLEVKSCDKRDEPRQNEATINLIRCMKWALGQSITSISHPAKQRPLNPKRDFSIKTKINLDVGVEKPKPGFCCSTAAATGVREQRNHHAPFYDAHGDSEEASHLDESDVESHDEVPNVPLAFVDYSPMCYRHIREFFNIDHRAYRDVLLRSRWHSTPTPGKSAAQLFFCGRDWVIKTMTHEESKFLRRILHRYYFFVLDHPYTLLPHFVGHHRLEINGEKMYIIIMQNVFVTGNTIHEKYDLKGSTVGRFATEAEKKKQTCTQKDLDINRPLHVGATRRNLLIEQMKMDCGFLNQCNIMDYSFLVGIHVLPMYEAHRPAPSTGSREYLGGAAALATSALEPSYLLGMGETMQPMALNGHPTAAADSAPTDGRCFKADQGGMMSADHPGGRREIYYIGIIDILQEYNSRKSMETLVFGMLKDRQKISAVPPKEYAARFVSFVSSIIV	not soluble
MAHHHHHHMPLIEAHLPALRPYIRYPVVAATGSFDVGRLQQYATVCPATYVIETITEALAELTRRMKWSFDLCGNFRDAADFAARGISFVALERATGNIAAGASSFCICDGGVEVGVETAESHQRRGLALACSARLILERLKHGLYPNWDAHVPHSAHLAEKLGYTRGTPYKAYVDELQT	not soluble
MAHHHHHHMPPKGQRSLNIAQPLSSSRAQSANAILRSAASAMATSGPAASKSSPRTSCFPRAFMSTGNARNEMEAYYEQLLSQDRVDGVDAFGKNGIHLLCKGLGIKPESFEMYTLIWKMGVTRGCCIPRADWLKTIYTYKIEQPMDLKLVLVEWVKESRGDSFTEFYNDLYDYIRGEEARLMPYGTAVEAWAVLFQNEPRIIPWIKWYSDIYRREVTRDVWRQIGIFLSAVPNIEAYNVEDRWSCAIDSYVEWCKVSG	not soluble
MAHHHHHHMPRIEISKDVKLTIMSYNIQMLSIPFSVHLNSWTRRNAIIDYICSLDDIYDIDILVLNEVFTKKCYKLLTSGKIKEKFPYHTNVIGRNYKRHDNYNDSSSSTGQKDGLSFHSSDTNINIESSRGISNYVSEQMEYIRKNKENHKNKLSKISEDISENSNSSYNSNFDTITGKRKFFHFVNGGVIVLSKHKILHKHALIYSSGKFPDVFCSKGAIYLKCDVMNKKVNVVATHLQAGDNKEQQKCRWKQIDELSKWVYEGIPSTFIKKFESLFFVGDFNIRYNADRLFLDKVLSDNYLNSYVTKKSLDTTYDSFLNDYCRYIERDYNYKHKYTLDYILVANNSNVEIIVPQTSIQNYYKSLYFIKFFLGIIPYKTTYIHHPSDHFPIYATFLILS	soluble
MAHHHHHHMPSFFPSMPPCDRAAMLTVCEARRQYLAAHVTQLYANTNPAELWSSIVKYRERNSTELLDTVNSYDELRLSYSGYRKVVYSLVFRVSPEEEKQASVEERESRKKLYFNHPFLSPATFLAFPRAEDGTIPAVPMYAFAAKRLLLYRMRVELELVARVLPPSLQDPATRVTHRLLCPPSSSSPLSNGLTQEDIEAFLYDLLPNLRLVRDMPPWMQPYYLCHASRKFMFMCDTRRTGAISIESMMKSDVFSELLRVFESDANDAIVVFTKGCTVDVAASLVTADAAEDDTIPALVLFHEGEGNNQDDMYIVKTLTDGVVLEVRRGQLYWNSGSTEFLQPDVLCMDNWFSLALMARIYEHFTSLDIDGDGVLTVDELSRYSDGSFTRLVIERAFECHVPHSGKRHIMDYKTYLDFVIATEHAATLPAMKYIWSILDLEENRKFVTVETLRCFCKAIANELIANGLMTDISAQSILSEVIDMINPKWHEWVELDDIVRSGHQATVLPILLSYRNFYAYDCREQTAAAANDEYA	not soluble
